Assay results reported in article PMC7114298.

Biological target: MERS-CoV PLpro-[change] (wild type) (MERS-CoV) (UniProt K9N7C7)

## Ub-AMC (from UniProt P0CG48 1-76) (natural protein)
  Km of Ub-AMC hydrolysis (steady-state kinetics, 25 °C): 16.6 µM
